From the domain aggregation screens of Martell et al. (2025)

Assay: soluble fraction after stress (log2 fold change); higher = more stays soluble; pooled small domains, quantitative proteomics
Conditions: stress: pH 4
Procedure, shortened: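 Aggregation propensity is read out as the fold change in how much of each domain remains soluble after acid stress. The custom small-domain libraries were pooled, held at pH 4 and analysed with high-throughput quantitative proteomics. On the log2 scale used, higher values mean more of the domain stayed soluble.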

Row | Sequence | soluble fraction (log2)
1 | HMSRREEALIALAQRVARQVARTKQPVTLEPMPANERRVIHVALRDNPDVETRSSGEGDQRRVTVYPRQ | 0.202
2 | HMDLVIALNSRIRVIREPFFGKLGTVIDLPHKLHKMESGTMTRVAKIKFDDRTEEIIPRTNLEVILS | -0.35
3 | HMVAEPTYGRTTDVLNIRSGPSTDDERIGQLSRGAVVTILEEKDGWYRLQRGYISADYVTQISAEEASNS | -0.546
4 | HMKPSVEIKVNGGTGAGVVKKGGSITVTANEPAEGKVFTGWQDESGKIVSTQKEYTFTVAEGTTLTAVYED | -0.417
5 | HMAGYDTYMVDRDAELLPWLLETLQRESRSKVKATLQGNGIKVNGKRVTQFNYPLKAGMKVSVSKSK | 0.129
6 | HMEKIKNLTVTEFNLIANKNPSGSYDRITREALLHIIHKLESSYEAHTDLERKLFYKFRKAKFNAL | -0.715
7 | HMEKLNERLLYLRKNANLTQQQLADKLHISNKTISQWETGRTLPDIVMLVRLAEIYDMKLDELLNQ | 0.074
8 | HMDELNFGNFEGTRIFVQRTARKKSIALSIRDGTIVILAPRHIPNQEIQELITTNTDWIRAKLSQHAETKR | -0.264
9 | HMPPFTYHLERAKRKTVGFIVDERGVTVRAPRWVSVSEIEKMLQTKEAWIQKKLTEFHNWQKE | 0.111
10 | HMNEVRINTAHIEHKYLGEVKVLDIQEMRNARGRDADPLAFLAIRFWSPRGVLVRVKDSRDATPYWLIS | -0.227
11 | HMSEISAEAGKRIRYFRKSRSMTLEELAAVIHKSKATLSKYETGEISIDLDTLYDLAVALQVRAEQLLPAS | -0.764
12 | HMATKVNSGVTVRDLAELLGLSSADLIKKLMTMGEMATLTQTLTDDSVKAIADEYDRKIEIVSAAQ | -0.771
13 | HMMTDAEKTFIFFSHLSSVEDHIAYGDKQFYMSLFWQHENKRELSSSQLYHLERLYNKYSMEEIEKKEEFS | -1.07
14 | HMQSANQLIKLSRKRKGLTQQELADQAGVSLRTVQRIEKGTEEISGFSLKQISQILEIPLEQLIM | -0.652
15 | HMRNLFWTEAQNAQNELNAMRINALTQSIRRIEPNFRGIPSLRDPNRPIPNEEVRDYENYLNRILP | 0.126
16 | HMHAQDTLMTRAGETRTVKILEIGLEEIKYRIWGLDDSPVIVIDKIDVKQIVFSNGEKMTIVQ | -1.86
17 | HMRDSWNEATKEKRYTEAYDALNSALKKTPATPHALSDALWIARELGRTNEEVQRLEWRLYALLTWIS | -0.0517
18 | HMSKPTLTDELLTLDLFEEIIKAKENAKGANKRFSLVGFLESKYIVDQEMLPKVNVKVTEYYNLTREN | -1.8
19 | HMSQAVEISSVKTQIDGKSYYLHTIKQGQTLYGISKAYGVSVEELTTVNPETSKGLKVGQIIKVPDTKT | -0.303
20 | HMPYFLKQSNTRSKGLYLQIYHSFYVPGKGSRNKSYKAIGYVSELIKNGIEDPITYAKNLVDELNNNSSTP | 0.226
21 | HMDVAAQITYAMRTMGVAPIPRNYELFYEAYIGSNPALTKELAALGSKATQEELDELGQQYF | -1.43
22 | HMSGFPTDAQIVREIRNILPTLENPTPRMVRKALENTFEVDMGESKTKKYINNIIITEYEKWSSVQSIRE | -0.804
23 | HMADENIELRKAGLKVTLPRVKILQILEAAKEPHMSAEDVYKALMEANEEVGLATVYRVLTQFESAGL | -0.232
24 | HMAPNDELTRQVISVLSGTPQQAFNYKQISKKLNINDSSERRMVSNILRELAGKGEIVEVYQGKYRSKAPA | 0.116
25 | HMAKYEVVAKDIISRIKQNEFETTLKLPTEDEMIEYYQVSRNTVRSALKLLTSQGIIFSRQGSGFYIRQRS | -0.117
26 | HMGKDTLKLKKNAIPYDENGKKLTNLGYSYIKKTTVLNYYGTKIINGSTYYFLGDGVYIKAANVGTTSH | 0.232
27 | HMLTLEDMTRINSIISPRIKKGQSLYHIAKNNGDELNISESTLRRLVMTGEMDAGIIDLPQAVK | -0.333
28 | HMKRTFGEISPLPSGRYRARYRGPDGERYPAPVTFLSRMDAETWLSAQARKVSSGDWTPPVGVVA | 0.195

Row | Sequence | soluble fraction (log2)
29 | HMSIVVPDLRGKTLEEARAILKEADLDFEINDSTFSKTARPGTIRDVVPSPGSRVKAGRILFISINGF | -0.0618
30 | HMNKFADLAGNIIYNENGVEVFNFGKYKGQPVAEVFKKDIGYYGWIQNADFPRYTKKVFTAIQLKSK | -0.0985
31 | HMDAVQAGKRVLIVDDLIATGGTAKAATDLIEKAGGTVVGFSFVMRLDGLDGLDKLDGKPSSSLIAMP | -0.0677
32 | HMSMDYYSTLGVSKTASASDIKKAYRKLAMANHPDKGGDSAKFAKITEAYDVLKDPQKRNNYDQFGTA | 0.399
33 | HMDDYRSLRGQEKAAIFLMSLSQEQAAKIFANLDDEEIKEISQAMSSLGTVGSEIIERLFVEFAEQVSS | -1.08
34 | HMEKAYVWTDTRTFDVQNYIGKKKSEVKNDQYGFEFLGEGDYVIDQLPRVGEQIEEGQKVKIMLGNQQEI | 0.117
35 | HMKEVDSESAFAERGISEVWIPALQKMGILTLEALDAANPNKVFNDLGGMRKKLKIDAAMPTKDEVTAWIQ | -0.053
36 | HMTEGDRLARRILRLVRNKPNGYPEVELMKATVLDWNHFQRSISSLEMAGILERRDPGDGTPPVWVEKR | -1.11
37 | HMNRTEYMAALRRALSVLPEEERASALRYYEEYFDDAGPENEEKVIADLGAPEKVAGQILADYRE | -0.462
38 | HMQKPWFYESSGQRKGGFSEQEMVGLITDGEITHGAIVWRNGLSDWTKLEQTELAAHLDKTA | -1.06
39 | HMNEIESFSNTKNPFSLTFKTSKDSSYKVEASSNLKKWTTLSQIKGTGNPITFTESRRILFRKQYYRVTLS | 0.102
40 | HMNNIYFSPVVEENNKGLRLDKFLAASFPEFSRSQLQRLILEGNVSNDDVVIADNSQKVRVGDSFQVIVPE | -0.0304
41 | HMYGTQTVNRGAVQPGMLVKHKDSTWTASANARGRLYLHRGVEMTYTRDLLVEVYLNGLGNGL | -0.342
42 | HMKDYTIDDIINSKVEHPLGGYQSRFKVGEYEVSVVGGRQTNHGDFIHTFELAIFDKNNNFLRNLTPVTID | -0.411
43 | HMAVKPIDRLRSLMAESNVTDAELQKVVADKGHYAADAPIDSYSEKFISGWLIKYWSQILNLINADRTVL | -0.0558
44 | HMRSFGRLRRRDSGRWEAAYVGPDARLYRAPATFEAKDDAIAWLSAERRMIELDTWIKPHDRASR | -0.000443
45 | HMPGTAAQARQLKAWLKENGEKPGAALPALQKAQEIYGYVPREVQQLIADALHKPLTEIYGVSTFYSQFNL | -0.326
46 | HMDYENGTVKWFNTKKGYGFITRENGEDLFVHFRNIKGRGRRSLNDGEPVTFVVIEGDKGLQADQVSA | -0.754
47 | HMNPEAFIQTLKQILSTYEKNDPIYLQEIKADLVKKFRIEIPINALETYLKENGYSNIYLKR | -0.516
48 | HMTIKTAFPAEDLAKPDNFKSLLYYFGLLTIRGTKWGSTLLAIPNLTVREQLYSYLVEAYRSADL | 0.244
49 | HMGNEEEEAIREAEEAIERVLEYGEPQELNPQNGFIRRLQHQLAEKSHLSSESVGVEPYRRVRISK | -0.00812
50 | HMEDYTPLQELGLKARYIELLEKGGIFSVEDLVQKSVDDLKDIDGIGEKTAKEIWEIVDSMVDF | -0.308
51 | HMVDIGQSIRVELIREGKDSHQAVGYLRDGSMVVVNHGRKLIGSTVEVEITSIVPSSAGKVIFAEYLE | -1.05
52 | HMTYMWTTDGVNLRSEPNTDSAVVTVLGVGTQVRMIGEEDGWVKVSFNDQEGYIRADFLTTE | -0.476
53 | HMFMLQAKRVPVSELENFKGIVAEDVVSQSRALILPRGSNLSWLSSSAMQNLSTRLALEGVESISIYL | -1.8
54 | HMYRLSPSWRIVERDDGFEIYGGDDARFQLDPSPLVSRLAAGDAVTRDGLDPTGAIEFEQLLSAGMIRPEI | -0.829
55 | HMNKKEQYQNIISNFLEKMSEEDRLIFNMHFFKSINISQIARSIDREGYYVKTKIENLLADLKSLMIGNNL | -1.17
